What was measured:
[1] = biological target: T1, human Natriuretic Peptide Receptor 1 (hNPR1) (human, UniProt P16066 33-473, limits assumed); assay: ELISA, IgG
T1 construct: pannings used NPR1-hFc; also called NPR1-hFc
T1 sequence: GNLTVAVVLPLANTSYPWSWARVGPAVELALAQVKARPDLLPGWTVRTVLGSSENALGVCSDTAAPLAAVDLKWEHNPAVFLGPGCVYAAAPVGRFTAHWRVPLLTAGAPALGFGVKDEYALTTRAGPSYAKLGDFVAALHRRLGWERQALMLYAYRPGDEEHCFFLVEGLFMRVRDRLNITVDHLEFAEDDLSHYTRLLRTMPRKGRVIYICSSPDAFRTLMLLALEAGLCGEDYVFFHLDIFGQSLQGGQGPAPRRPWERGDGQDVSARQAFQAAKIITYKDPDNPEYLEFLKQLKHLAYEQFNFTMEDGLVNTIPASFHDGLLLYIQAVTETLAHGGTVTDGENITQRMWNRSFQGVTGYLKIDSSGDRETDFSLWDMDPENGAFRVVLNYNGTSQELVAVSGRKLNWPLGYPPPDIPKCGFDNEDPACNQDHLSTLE

hNPR1-ANP complex = biological target: T2, hNPR1-ANP complex (human, UniProt P01160 124-151, limits assumed); assay: ELISA, IgG
T2 construct: hNPR1 antigen in the presence of ANP; also called hNPR1 + 100 nM ANP
T2 sequence: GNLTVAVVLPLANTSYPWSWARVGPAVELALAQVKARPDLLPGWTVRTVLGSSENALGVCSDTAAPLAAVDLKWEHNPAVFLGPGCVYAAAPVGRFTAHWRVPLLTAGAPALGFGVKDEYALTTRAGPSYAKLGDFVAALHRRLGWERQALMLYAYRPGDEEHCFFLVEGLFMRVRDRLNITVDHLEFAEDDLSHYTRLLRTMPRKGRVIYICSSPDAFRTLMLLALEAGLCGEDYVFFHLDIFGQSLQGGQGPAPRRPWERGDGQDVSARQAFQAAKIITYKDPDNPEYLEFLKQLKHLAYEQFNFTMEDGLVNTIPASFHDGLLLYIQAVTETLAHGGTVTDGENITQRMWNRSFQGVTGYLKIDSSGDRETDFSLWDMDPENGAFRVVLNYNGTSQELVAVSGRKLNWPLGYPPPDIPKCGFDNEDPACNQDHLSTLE
T2 sequence (peptide): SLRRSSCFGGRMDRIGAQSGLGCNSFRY

[2] = biological target: T3, human NPR1 on CHO-K1 cells in the presence of ANP (human, UniProt P01160 124-151); assay: flow cytometry, hNPR1 CHO-K1 cells, IgG
T3 construct: also called hNPR1 CHO K1 + 100 nM ANP
T3 sequence: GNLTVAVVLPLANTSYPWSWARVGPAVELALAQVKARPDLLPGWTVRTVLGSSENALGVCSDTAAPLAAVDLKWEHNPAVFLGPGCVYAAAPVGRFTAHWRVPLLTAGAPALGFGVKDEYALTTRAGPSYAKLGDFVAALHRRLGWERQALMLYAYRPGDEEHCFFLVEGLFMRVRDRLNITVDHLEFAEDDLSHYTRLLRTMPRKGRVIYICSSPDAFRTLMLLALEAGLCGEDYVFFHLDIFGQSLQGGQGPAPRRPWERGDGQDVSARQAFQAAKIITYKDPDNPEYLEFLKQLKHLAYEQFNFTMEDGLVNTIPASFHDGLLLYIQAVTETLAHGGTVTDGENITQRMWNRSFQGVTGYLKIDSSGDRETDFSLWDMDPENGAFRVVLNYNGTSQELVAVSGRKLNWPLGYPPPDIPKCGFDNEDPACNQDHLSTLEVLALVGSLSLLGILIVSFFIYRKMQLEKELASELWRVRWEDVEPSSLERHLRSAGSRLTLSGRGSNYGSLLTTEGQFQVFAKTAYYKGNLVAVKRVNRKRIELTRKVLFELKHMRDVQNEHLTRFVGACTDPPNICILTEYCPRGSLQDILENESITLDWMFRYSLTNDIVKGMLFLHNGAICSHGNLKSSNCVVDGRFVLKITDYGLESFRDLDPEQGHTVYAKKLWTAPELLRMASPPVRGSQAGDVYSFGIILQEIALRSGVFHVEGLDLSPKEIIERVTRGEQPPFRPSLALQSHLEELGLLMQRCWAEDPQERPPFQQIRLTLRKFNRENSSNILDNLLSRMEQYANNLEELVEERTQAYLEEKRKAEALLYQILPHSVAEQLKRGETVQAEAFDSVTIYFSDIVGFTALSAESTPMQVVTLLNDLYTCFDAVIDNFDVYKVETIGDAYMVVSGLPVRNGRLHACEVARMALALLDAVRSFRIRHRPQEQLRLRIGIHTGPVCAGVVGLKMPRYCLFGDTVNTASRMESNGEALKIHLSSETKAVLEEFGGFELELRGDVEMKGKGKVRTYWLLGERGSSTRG
T3 sequence (peptide): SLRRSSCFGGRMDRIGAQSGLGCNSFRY

[3] = biological target: T4, human NPR3 (counter target) (human, UniProt P17342 27-481, limits assumed); assay: ELISA, IgG titrated on coated antigen, fluorescence [Cont.]
T4 construct: Pannings used hNPR3-hFc; also called hNPR3; hNPR3-hFc
T4 sequence (looked up): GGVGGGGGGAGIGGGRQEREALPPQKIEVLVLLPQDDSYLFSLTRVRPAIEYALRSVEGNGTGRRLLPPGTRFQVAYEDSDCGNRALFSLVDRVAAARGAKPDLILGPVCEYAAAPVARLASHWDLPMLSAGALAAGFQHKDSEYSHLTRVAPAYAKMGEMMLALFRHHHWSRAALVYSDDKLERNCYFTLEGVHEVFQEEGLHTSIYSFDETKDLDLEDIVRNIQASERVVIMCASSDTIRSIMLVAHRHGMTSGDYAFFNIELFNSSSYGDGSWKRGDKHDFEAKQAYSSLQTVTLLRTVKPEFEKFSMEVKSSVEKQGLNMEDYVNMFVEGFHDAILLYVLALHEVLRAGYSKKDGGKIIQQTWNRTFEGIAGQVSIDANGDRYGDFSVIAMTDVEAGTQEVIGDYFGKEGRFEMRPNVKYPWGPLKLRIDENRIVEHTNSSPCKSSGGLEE

[4] = biological target: T5, human NPR3 in the presence of ANP (human, UniProt P17342 27-481; P01160 124-151, limits assumed); assay: ELISA, IgG titrated on coated antigen with ANP (250 fold molar excess), fluorescence [Cont.]
T5 construct: also called hNPR3 + 100 nM ANP
T5 sequence (looked up): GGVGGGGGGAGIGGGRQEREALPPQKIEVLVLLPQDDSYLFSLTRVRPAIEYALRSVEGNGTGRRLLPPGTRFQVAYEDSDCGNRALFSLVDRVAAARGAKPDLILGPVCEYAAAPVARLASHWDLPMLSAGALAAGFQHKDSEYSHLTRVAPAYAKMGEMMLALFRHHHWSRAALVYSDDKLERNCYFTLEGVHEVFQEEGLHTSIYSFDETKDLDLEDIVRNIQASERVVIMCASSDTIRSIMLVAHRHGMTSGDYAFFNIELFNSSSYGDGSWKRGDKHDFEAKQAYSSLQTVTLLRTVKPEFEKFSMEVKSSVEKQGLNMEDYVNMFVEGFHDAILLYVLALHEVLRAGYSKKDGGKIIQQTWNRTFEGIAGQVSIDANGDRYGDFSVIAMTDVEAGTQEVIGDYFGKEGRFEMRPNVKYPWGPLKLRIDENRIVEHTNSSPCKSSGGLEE
T5 sequence (peptide, looked up): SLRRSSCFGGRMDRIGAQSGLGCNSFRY

B1: WW03 (IgG format) (antibody, V domains shown)
VH: QVQLLESGGGLVQPGGSLRLSCAASGFTFSSYWMNWVRQAPGKGLEWVSAISSDGSYTYYADSVKGRFTISRDNSKNTLYLQMNSLRAEDTAVYYCARDRYSMIYSYGAGAFDYWGQGTLVTVSS
VL: DIQMTQSPSSLSASVGDRVTITCRASQGISSYLAWYQQKPGKAPKLLIYTASTLQSGVPSRFSGSGSGTDFTLTISSLQPEDFATYYCMQSYEKPRTFGQGTKVEIKR
notes: also called WW03_LALA
EC50 [1]: 42.7 nM | EC50 (hNPR1-ANP complex): 1.4 nM | flow cytometry S/BG at 2 µM IgG [2]: 214 S/BG | binding result [3]: no binding (tested: 1000 nM) | binding result [4]: no binding (tested: 1000 nM)

— patent US20240052042A1 (Novartis, published 2024)
